Data from US11278600B2, “Human alpha-galactosidase variants” (Codexis, Inc., priority 2014, dated 2022).

Legend:
Format in all cases: biochemical
[1] = HTP-analysis of yeast culture supernatants, no challenge (MUGal hydrolysis); settings: activity of the variant/activity of Rd4BB (SEQ ID NO: 15)
How it was run: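 GLA variants were expressed in INVSc1 yeast grown in SD-Ura broth with glucose at 30° C., and culture supernatants were collected after 66-84 h. Supernatant was mixed with McIlvaine buffer pH 4.8 and MUGal (2 mM stock) in 50 mM citrate, 200 mM KCl, pH 4.6, incubated at 37° C. for 30-180 minutes, then quenched with sodium carbonate.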

[2] = HTP-analysis of supernatants pretreated with base (MUGal hydrolysis); settings: activity of the variant/activity of Rd4BB (SEQ ID NO: 15); challenge at pH 9.65
How it was run: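 Supernatants from INVSc1 yeast expressing GLA variants (SD-Ura, 66-84 h, 30° C) were mixed with McIlvaine buffer pH 7.0-8.2 or 200 mM sodium bicarbonate pH 9.1-9.7 and held 1-18 h at 37° C. Residual activity was then measured on MUGal at pH 4.8/4.3, 37° C, 30-180 min, by fluorescence (Ex 355/Em 448 nm).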

[3] = HTP-analysis of supernatants pretreated with acid (MUGal hydrolysis); settings: activity of the variant/activity of Rd4BB (SEQ ID NO: 15); challenge at pH 3.7
How it was run: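 GLA variants were secreted from INVSc1 yeast grown 66-84 h at 30° C. in SD-Ura with 2% glucose; supernatants were mixed with McIlvaine buffer pH 3.3-4.3 and held at 37° C. for 1-3 h. Residual activity on MUGal at pH 4.8 was then measured by fluorescence.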

Molecule	Relative Activity of GLA Variants After No Challenge (NC) [1]	Relative Activity of GLA Variants After Challenge at pH 9.65 [2]	Relative Activity of GLA Variants After Challenge at pH 3.7 [3]
373 (protein, Synthetic Polypeptide sequence of Variant No. 373 of mature Human GLA) LDNGLARTPTMGWLHWERFMCNLDCQEEPDSCISEKLFMERAERMVSEGWKDAGYEYLCIDDCWMAPQRDSEGRLQADPQRFPHGIRQLANYVHSKGLKLGIYADVGNKTCAGFPGSFGYYDIDAQTFADWGVDLLKFDGCYCDSLENLADGYKHMSLALNRTGRSIVYSCEWPLYMWPFQKPNYTEIRQYCNHWRNFADIDDSWKSIKSILDWTSRNQERIVDVAGPGGWNDPDMLVIGNFGLSWDQQVTQMALWAIMAAPLFMSNDLRHISPQAKALLQDKDVIAINQDPLGKQGYQLRKGDNFEVWERPLSGDAWAVAIINRQEIGGPRSYTIPVASLGKGVACNPACFITQLLPVKRQLGFYNWTSRLKSHINPTGTVLLQLENTMQMSLKDLL	− (<0.5 relative activity over Rd4BB (SEQ ID NO: 15))	− (<0.5 relative activity over Rd4BB (SEQ ID NO: 15))	− (<0.5 relative activity over Rd4BB (SEQ ID NO: 15))
375 (protein, Synthetic Polypeptide sequence of Variant No. 375 of mature Human GLA) LDNGLARTPTMGWLHWERFMCNLDCQEEPDSCISEKLFMEMAERMVIEGWKDAGYEYLCIDDCWMAPQRDSEGRLQADPQRFPHGIRQLANYVHSKGLKLGIYADVGNKTCAGFPGSFGYYDIDAQTFADWGVDLLKFDGCYCDSLENLADGYKHMSLALNRTGRSIVYSCEWPLYMWPFQKPNYTEIRQYCNHWRNFADIDDSWKSIKSILDWTSRNQERIVDVAGPGGWNDPDMLVIGNFGLSWDQQVTQMALWAIMAAPLFMSNDLRHISPQAKALLQDKDVIAINQDPLGKQGYQLRKGDNFEVWERPLSGDAWAVAIINRQEIGGPRSYTIPVASLGKGVACNPACFITQLLPVKRQLGFYNWTSRLKSHINPTGTVLLQLENTMQMSLKDLL	+ (0.5 to 1.5 relative activity over Rd4BB (SEQ ID NO: 15))	+ (0.5 to 1.5 relative activity over Rd4BB (SEQ ID NO: 15))	+ (0.5 to 1.5 relative activity over Rd4BB (SEQ ID NO: 15))
374 (protein, Synthetic Polypeptide sequence of Variant No. 374 of mature Human GLA) LDNGLARTPTMGWLHWERFMCNLDCQEEPDSCISEKLFMEMAEMMVSEGWKDAGYEYLCIDDCWMAPQRDSEGRLQADPQRFPHGIRQLANYVHSKGLKLGIYADVGNKTCAGFPGSFGYYDIDAQTFADWGVDLLKFDGCYCDSLENLADGYKHMSLALNRTGRSIVYSCEWPLYMWPFQKPNYTEIRQYCNHWRNFADIDDSWKSIKSILDWTSRNQERIVDVAGPGGWNDPDMLVIGNFGLSWDQQVTQMALWAIMAAPLFMSNDLRHISPQAKALLQDKDVIAINQDPLGKQGYQLRKGDNFEVWERPLSGDAWAVAIINRQEIGGPRSYTIPVASLGKGVACNPACFITQLLPVKRQLGFYNWTSRLKSHINPTGTVLLQLENTMQMSLKDLL	+ (0.5 to 1.5 relative activity over Rd4BB (SEQ ID NO: 15))	+ (0.5 to 1.5 relative activity over Rd4BB (SEQ ID NO: 15))	+ (0.5 to 1.5 relative activity over Rd4BB (SEQ ID NO: 15))
508 (protein, Synthetic Polypeptide sequence of Variant No. 508 of mature Human GLA) LDNGLARTPTMGWLHWERFMCNLDCQEEPDSCISEKLFMEMAERMVSEGWKDAGYEYLCIDDCWMAPQRDSEGRLQADPQRFPHGIRQLANYVHSKGLKLGIYADVGNKTCAGFPGSFGYYDIDAQTFADWGVDLLKFDGCYCDSLENLADGYKHMSLALNRTGRSIVYSCEWPLYMWPFQKPNYTEIRQYCNHWRNFADIDDSWKSIKSILDWTSFNQERIVDVAGPGGWNDPDMLVIGNFGLSWNQQVTQMALWAIMAAPLFMSNDLRHISPQAKALLQDKDVIAINQDPLGKQGYQLRQGDNFEVWERPLSGLAWAVAMINRQEIGGPRSYTIAVASLGKGVACNPACFITQLLPVKRKLGFYEWTSRLRSHINPTGTVLAQLENTMQMSLKDLL	− (<0.5 relative activity over Rd4BB (SEQ ID NO: 15))	− (<0.5 relative activity over Rd4BB (SEQ ID NO: 15))	− (<0.5 relative activity over Rd4BB (SEQ ID NO: 15))
510 (protein, Synthetic Polypeptide sequence of Variant No. 510 of mature Human GLA) LDNGLARTPTMGWLHWERFMCNLDCQEEPDSCISEKLFMEMAERMVSEGWKDAGYEYLCIDDCWMAPQRDSEGRLQADPQRFPHGIRQLANYVHSKGLKLGIYADVGNKTCAGFPGSFGYYDIDAQTFADWGVDLLKFDGCYCDSLENLADGYKHMSLALNRTGRSIVYSCEWPLYMWPFQKPNYTEIRQYCNHWRNFGDIDDSWKSIKSILDWTSFNQERIVDVAGPGGWNDPDMLVIGNFGLSWNQQVTQMALWAIMAAPLFMSNDLRHISPQAKALLQDKDVIAINQDPLGKQGYQLRQGDNFEVWERPLSGLAWAVAMINRQEIGGPRSYTIAVASLGKGVACNPACFITQLLPVKRKLGFYEWTSRLRSHINPTGTVLLQLENTMQRSLKDLL	+ (0.5 to 1.5 relative activity over Rd4BB (SEQ ID NO: 15))	+ (0.5 to 1.5 relative activity over Rd4BB (SEQ ID NO: 15))	− (<0.5 relative activity over Rd4BB (SEQ ID NO: 15))
509 (protein, Synthetic Polypeptide sequence of Variant No. 509 of mature Human GLA) LDNGLARTPTMGWLHWERFMCNLDCQEEPDSCISEKLFMEMAERMVSEGWKDAGYEYLCIDDCWMAPQRDSEGRLQADPQRFPHGIRQLANYVHSKGLKLGIYADVGNKTCAGFPGSFGYYDIDAQTFADWGVDLLKFDGCYCDSLENLADGYKHMSLALNRTGRSIVYSCEWPLYMWPFQKPNYTEIRQYCNHWRNFADIDDSWKSIKSILDWTSFNQERIVDVAGPGGWNDPDMLVIGNFGLSWNQQVTQMALWAIMAAPLFMSNDLRHISPQAKALLQDKDVIAINQDPLGKQGYQLRQGDNFEVWERPLSGLAWAVAMINRQEIGGPRSYTIAVASLGKGVACNPACFITQLLPVKRKLGFYEWTSRLRSHINPTGTVLLTLENTMQMSLKDLL	+ (0.5 to 1.5 relative activity over Rd4BB (SEQ ID NO: 15))	+ (0.5 to 1.5 relative activity over Rd4BB (SEQ ID NO: 15))	+ (0.5 to 1.5 relative activity over Rd4BB (SEQ ID NO: 15))
